{"source": "patent US20170306005A1", "about": "(NASCIENT, published 2017)", "key": {"[1]": {"target": "T1, Human FGB-rCd4", "T1 construct": "Not the same construct as m1, which has the FBG at the C terminus; also called human TNC FBG-rCD4; human tenascin-C FBG-rCd4-His (FBG at the N terminus of the rat Cd4 tag); not shown: rat Cd4 (domains 3 and 4) tag, the C-terminal His6 tag and the vector-derived junction residues of pBIOCAM4", "T1 chain": "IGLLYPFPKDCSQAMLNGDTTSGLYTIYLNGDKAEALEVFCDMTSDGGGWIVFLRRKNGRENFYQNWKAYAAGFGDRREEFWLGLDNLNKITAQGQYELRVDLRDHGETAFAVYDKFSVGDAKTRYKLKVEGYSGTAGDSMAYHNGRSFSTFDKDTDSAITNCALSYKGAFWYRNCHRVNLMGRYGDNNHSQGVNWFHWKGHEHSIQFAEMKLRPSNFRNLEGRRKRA", "experiment": "ELISA (DELFIA), antigen coated on the well, purified Fab at 50 nM, detected with anti-kappa or anti-lambda mAb and Europium-conjugated anti-mouse mAb"}, "[2]": {"target": "T2, human tenascin-R rCd4-His-FBG (rat; human, UniProt P05540 207-392, limits assumed)", "T2 construct": "domain: domains 3 and 4; C-terminal FBG fusion; also called Hu TNR; human TNR rCd4-His-FBG; not shown: 6His tag", "T2 sequence (chain (part 1 of 2))": "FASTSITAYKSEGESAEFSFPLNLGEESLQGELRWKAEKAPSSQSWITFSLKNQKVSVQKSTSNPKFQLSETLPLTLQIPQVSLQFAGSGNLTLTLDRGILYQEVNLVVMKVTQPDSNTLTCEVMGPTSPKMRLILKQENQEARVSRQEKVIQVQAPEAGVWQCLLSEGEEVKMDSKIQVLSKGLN", "T2 sequence (chain (part 2 of 2))": "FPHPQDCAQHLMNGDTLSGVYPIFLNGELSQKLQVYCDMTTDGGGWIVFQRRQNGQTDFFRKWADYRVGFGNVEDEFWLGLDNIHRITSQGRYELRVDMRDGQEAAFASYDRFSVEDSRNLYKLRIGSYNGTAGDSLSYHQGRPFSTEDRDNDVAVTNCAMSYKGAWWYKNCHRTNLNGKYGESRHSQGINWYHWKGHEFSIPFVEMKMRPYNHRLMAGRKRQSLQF", "experiment": "SPR (BIAcore), Fab captured (23 nM) on anti-CL kappa / anti-CL lambda CM5 sensor chip, rCd4-FBG injected up to 2 µM; steady-state plot of response against concentration [Con't]", "protocol": "(§1) Experiments were performed using a BIAcore T100 instrument with CM5 sensor chip according to the protocol provided with the Human Fab Capture Kit (GE, 28-9583-25). […] After reference signal subtraction, the data was fitted to a global 1:1 fit using the T100 BIAevaluation software (FIGS. 6 a-d)."}, "[3]": {"target": "T2, human tenascin-R rCd4-His-FBG", "experiment": "SPR steady state, captured Fab, 25 C", "protocol": "as §1"}, "[4]": {"target": "T3, mouse tenascin-C rCd4-His-FBG (rat; mouse, UniProt P05540 207-392, limits assumed)", "T3 construct": "domain: domains 3 and 4; C-terminal FBG fusion; biotinylated in the ELISA screen; also called Mu TNC; mouse TNC rCd4-His-FBG; not shown: 6His tag", "T3 sequence (chain (part 1 of 2))": "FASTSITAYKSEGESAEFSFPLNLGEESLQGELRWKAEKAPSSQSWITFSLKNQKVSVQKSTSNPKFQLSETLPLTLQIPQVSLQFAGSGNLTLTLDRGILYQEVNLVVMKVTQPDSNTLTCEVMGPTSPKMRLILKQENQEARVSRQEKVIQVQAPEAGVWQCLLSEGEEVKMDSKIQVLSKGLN", "T3 sequence (chain (part 2 of 2))": "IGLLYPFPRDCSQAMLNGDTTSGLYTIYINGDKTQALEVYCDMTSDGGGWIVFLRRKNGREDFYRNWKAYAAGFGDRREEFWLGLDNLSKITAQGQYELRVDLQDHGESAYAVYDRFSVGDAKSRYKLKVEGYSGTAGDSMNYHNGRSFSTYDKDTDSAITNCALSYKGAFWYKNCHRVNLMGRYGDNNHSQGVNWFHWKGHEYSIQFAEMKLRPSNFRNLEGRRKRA", "experiment": "SPR steady state, captured Fab, 25 C", "protocol": "as §1"}, "[5]": {"target": "T2, human tenascin-R rCd4-His-FBG", "experiment": "SPR, captured Fab, 25 C", "protocol": "as §1"}, "[6]": {"target": "T4, human tenascin-C rCd4-His-FBG (rat; human, UniProt P05540 207-392, limits assumed)", "T4 construct": "domain: domains 3 and 4; C-terminal FBG fusion; biotinylated in the ELISA and HTRF screens; also called Hu TNC; human TNC rCd4-His-FBG; not shown: 6His tag", "T4 sequence (chain (part 1 of 2))": "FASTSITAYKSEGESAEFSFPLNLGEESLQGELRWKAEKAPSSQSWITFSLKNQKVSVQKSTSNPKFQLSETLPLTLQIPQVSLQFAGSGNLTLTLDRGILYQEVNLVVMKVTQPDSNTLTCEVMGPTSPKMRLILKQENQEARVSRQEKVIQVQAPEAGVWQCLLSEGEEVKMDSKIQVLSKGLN", "T4 sequence (chain (part 2 of 2))": "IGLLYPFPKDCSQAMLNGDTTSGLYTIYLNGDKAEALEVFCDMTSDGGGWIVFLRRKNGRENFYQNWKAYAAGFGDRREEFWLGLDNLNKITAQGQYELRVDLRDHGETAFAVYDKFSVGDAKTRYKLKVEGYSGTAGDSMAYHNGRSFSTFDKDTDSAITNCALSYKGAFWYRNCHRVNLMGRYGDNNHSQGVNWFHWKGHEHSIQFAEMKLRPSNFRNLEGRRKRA", "experiment": "SPR, captured Fab, 25 C", "protocol": "as §1"}, "[7]": {"target": "T3, mouse tenascin-C rCd4-His-FBG", "experiment": "SPR, captured Fab, 25 C", "protocol": "as §1"}, "[8]": {"target": "T5, human Fc-His-FBG (human, UniProt P24821 1974-2201)", "T5 sequence": "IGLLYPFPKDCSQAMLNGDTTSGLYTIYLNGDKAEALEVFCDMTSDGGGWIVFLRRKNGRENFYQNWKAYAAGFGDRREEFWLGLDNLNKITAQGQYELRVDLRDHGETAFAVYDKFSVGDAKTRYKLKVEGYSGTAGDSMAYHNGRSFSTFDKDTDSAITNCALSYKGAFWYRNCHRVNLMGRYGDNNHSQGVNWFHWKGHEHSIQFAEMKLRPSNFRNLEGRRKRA", "experiment": "cell-based or functional assay"}}, "data": [{"binder": "Fab D8 (Fab, V domains shown, monomeric Fab) VH: EVQLVQSGAEVKKPGASVKVSCKASGYTFTSYGISWVRQAPGQGLEWMGWISAYNGNTNYAQKLQGRVTMTTDTSTSTAYMELRSLRSDDTAVYYCARNQDSSSDYWGQGTLVTVSS VL: DIQMTQSPASLPTSVGDRVTITCRASQYIQGFLNWYQQKPGKAPKLLIYDASNLETGVPSRFSGSGSGTDFTLTISSLQPEDFATYYCQQSYSTLQTFGQGTKVDIKR", "values": [{"measurement": "binding result", "setting": "[1]", "result": "binds"}, {"measurement": "Kd", "setting": "[2]", "result": 1110, "unit": "nM"}, {"measurement": "Kd", "setting": "[3]", "result": 913, "unit": "nM"}, {"measurement": "Kd", "setting": "[4]", "result": 41.2, "unit": "nM"}, {"measurement": "Kd", "setting": "[5]", "result": 1030, "unit": "nM"}, {"measurement": "koff", "setting": "[5]", "result": 0.57, "unit": "s⁻¹"}, {"measurement": "kon", "setting": "[5]", "result": 555000, "unit": "M⁻¹ s⁻¹"}, {"measurement": "Kd", "setting": "[6]", "result": 8.49, "unit": "nM"}, {"measurement": "koff", "setting": "[6]", "result": 0.0131, "unit": "s⁻¹"}, {"measurement": "kon", "setting": "[6]", "result": "1.54e+06", "unit": "M⁻¹ s⁻¹"}, {"measurement": "Kd", "setting": "[7]", "result": 48.4, "unit": "nM"}, {"measurement": "koff", "setting": "[7]", "result": 0.0716, "unit": "s⁻¹"}, {"measurement": "kon", "setting": "[7]", "result": "1.48e+06", "unit": "M⁻¹ s⁻¹"}, {"measurement": "IC50, inhibition of Fc-His-HuFBG-evoked IL-8 release, THP1-Blue cells", "setting": "[8]", "result": 14.9, "unit": "nM"}, {"measurement": "IC50, inhibition of Fc-His-HuFBG-evoked alkaline phosphatase, THP1-Blue cells", "setting": "[8]", "result": 7.2, "unit": "nM"}]}]}
